Test results as given in patent US12565517B2, “Cyclic peptide having CTLA-4 inhibitory activity and use thereof” (GeneFrontier Corporation, priority 2019, dated 2026).
Where a SMILES comes first, the peptide text is derived from it. Bridges are numbered along the chain shown (N, C = ends). Where no end group is shown, it is not given here. The star is where a group is joined. Biotin = O=C1N[C@H]2[C@H](CS[C@H]2CCCCC(=O)*)N1; PEG4 = NCCOCCOCCOCCOCCC(=O)O

Legend:
[1] = biological target: T1, CTLA-4 (Homo sapiens, UniProt P16410); assay: Affinity measurement of synthetic biotinylated peptides by BLItz system (peptide on SA sensor chip); assay type: binding
T1 sequence (P16410 36-223): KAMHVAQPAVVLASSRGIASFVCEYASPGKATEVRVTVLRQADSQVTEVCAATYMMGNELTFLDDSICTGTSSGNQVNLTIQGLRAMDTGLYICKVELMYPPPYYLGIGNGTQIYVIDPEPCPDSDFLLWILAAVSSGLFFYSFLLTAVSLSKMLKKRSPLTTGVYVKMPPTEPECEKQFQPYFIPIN
Method: Affinity for CTLA-4 was measured using the BLItz system (forte Bio). All operations were performed according to the instruction manual of the BLItz system. The biotinylated peptides were immobilized on the SA sensor chip via streptavidin.

[2] = biological target: T1, CTLA-4; assay: ELISA binding of clones after Affinity Maturation with random library (Tables 10, 11); conditions: CTLA-4 binding ELISA of clones after Affinity Maturation from random (NNS) library; signal/noise ratio; clones of 4th or 5th round
Method: (§1) After each round of Affinity Maturation, the cyclic peptide genes were recovered and subcloned into pET-Mal vector (FIG. 2) in the same manner as described above to perform base sequence analysis. For the 94 single colonies analyzed for sequence, E. coli transformants were inoculated into 100 μL of 2×YT medium containing ampicillin (final concentration 50 μg/mL), incubated at 37° C. for 3-5 hours (OD600=0.5-0.8), then added with IPTG (final concentration 0.5 mM) and incubated at 25° C. overnight. 10 μL of E. coli cultured medium was added with 90 μL of PBS and 40 μL of lysis reagent (20 μL BugBuster Protein Extraction Reagent (Novagen), 20 μL Lysozyme solution 2.5 mg/mL) to lyse E. coli cells for 1 hour at room temperature. The cell lysate was added with 40 μL of 12.5% skim milk solution (TBST) and blocked for 1 hour at room temperature. In parallel, antigen protein was immobilized overnight at 4° C. in 384-well plates at 100 ng/20 μL per well, and each well was washed twice with 100 μL/well of TBST, added with 100 μL/well of 5% skim milk solution (TBST) for blocking for 1 hour at room temperature, and washed twice with 100 μL/well of TBST to obtain antigen-immobilized plates. 20 μL/well of blocking-treated E. coli extract was added to the antigen-immobilized plates and gently stirred at room temperature using a plate mixer. After 1 hour, the plates were washed 5 times with 100 μL/well of TBST, 20 μL/well of anti-FLAG M2-HRP conjugate (1:2000 dilution, Sigma) was added and gently stirred on a plate mixer for 1 hour at room temperature. The plates were washed 5 times with 100 μL/well of TBST, and binding of cyclic peptides to the antigen was detected by 20 μL/well of chromogenic substrate (0.4 mg/mL 3,3′,5,5′-Tetramethyl-benzidine, 0.01% hydrogen peroxide). After 15 minutes of reaction at room temperature, the reaction was stopped with 20 μL/well of 2N HCl, and absorbance at 450 nm was measured using a plate reader (infinite F200: TECAN) (Table 5).
Oligo DNAs of a library were synthesized (see below), in which amino acid residues (positions 1, 4, 8, 10, +1 and +2) (corresponding to X1, […], X8, X10, X+1 and X+2) other than those essential or advantageous for CTLA-4 binding (2H, 3P, 5L, 6P, 7I, 9S, 11H, 12F) identified by alanine scanning were randomized (NNS).
Affinity Maturation was performed in the same manner as described above. The amount of biotinylated CTLA-4 immobilized on the magnetic beads was 10 pmol in the 1st round, 2 pmol in the 2nd round, and 1 pmol in the 3nd-5th rounds, respectively. The washing period was 2 hours for the 1st round, 19 hours for the 2nd round, 67 hours for the 3nd round, 140 hours for the 4th round, and 340 hours for the 5th round. Washing frequency was 1 time (2 hours) in the 1st round, 2 times (every 10 hours) in the 2nd round, 6 times (every 10 hours) in the 3rd round, 14 times (every 10 hours) in the 4th round, and 36 times (every 10 hours) in the 5th round.

[3] = biological target: T2, CTLA-4 (Homo sapiens, UniProt P16410); assay: Evaluation of binding after Affinity Maturation selection by ELISA (S/N ratio, Table 5)
T2 construct: IgG1 Fc (own knowledge: Orencia = abatacept, CTLA4-Ig)
Method: The basic operation of ribosome display was performed in the same manner as described above. Detailed experimental conditions for Affinity Maturation are indicated below. 2 μL of Nanolink streptavidin magnetic beads (SoluLink) were used as magnetic beads to immobilize the antigen, and 1 mL of CTLA-4 protein solution (1 μM) was used as a wash solution. The amount of biotinylated CTLA-4 immobilized on the magnetic beads was 10 pmol in the 1st round, 2 pmol in the 2nd round, and 1 pmol in the 3rd round, respectively. The washing period was 2 hours for the 1st round, 19 hours for the 2nd round, and 67 hours for the 3rd round. The number of wash cycle was one time (2 hours) in the 1st round, two times (about every 10 hours) in the […], and six times (about every 10 hours) in the 3rd round. After each round of RT-PCR, Error-Prone PCR was performed in the same manner as described above.
as §1
T2 sequence (P16410 with tags, fused parts or gaps limits assumed): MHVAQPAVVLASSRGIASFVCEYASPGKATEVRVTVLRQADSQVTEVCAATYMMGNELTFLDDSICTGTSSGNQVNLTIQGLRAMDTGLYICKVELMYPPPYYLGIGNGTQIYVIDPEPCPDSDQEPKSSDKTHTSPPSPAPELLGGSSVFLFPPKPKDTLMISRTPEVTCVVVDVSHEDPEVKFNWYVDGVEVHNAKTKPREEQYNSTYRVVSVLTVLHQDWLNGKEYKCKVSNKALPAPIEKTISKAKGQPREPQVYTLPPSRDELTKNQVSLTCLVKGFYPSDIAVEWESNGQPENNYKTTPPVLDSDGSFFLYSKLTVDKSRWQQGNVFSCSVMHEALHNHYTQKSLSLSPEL

[4] = biological target: SA (Streptomyces avidinii, UniProt P22629); assay: ELISA background signal of MBP-fused cyclic peptides on SA wells (Table 5); assay type: binding; conditions: MBP-fused cyclic peptide
SA, sequence (P22629 25-183): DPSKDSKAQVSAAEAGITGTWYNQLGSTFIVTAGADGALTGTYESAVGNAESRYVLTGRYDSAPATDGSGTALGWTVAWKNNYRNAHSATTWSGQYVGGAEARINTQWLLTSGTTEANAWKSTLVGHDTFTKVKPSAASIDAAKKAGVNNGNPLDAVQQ
Method: as §1
An Error-Prone Library was prepared based on H12SSI-Ctla4-3-02, and Affinity Maturation selection experiments were performed. […]

[5] = biological target: T1, CTLA-4; assay: Affinity measurement of CTLA-4 binding clones after Affinity Maturation (EC50 by ELISA, Table 6)
Method: For each of the CTLA-4 binding clones obtained by Affinity Maturation, purified N-terminal MBP fusion protein solution (400 μg/mL) was prepared and samples serially 2-fold diluted with PBS were prepared. CTLA-4 was immobilized overnight at 4° C. in 384-well plates at 100 ng/20 μL per well, and each well was washed twice with 100 μL/well of TBST, added with 100 μL/well of 5% skim milk solution (TBST) for blocking for 1 hour at room temperature, and washed twice with 100 μL/well of TBST to obtain antigen-immobilized plates. 20 μL/well of serially-diluted N-terminal MBP fusion protein solution was added to the antigen-immobilized plates and gently stirred at room temperature using a plate mixer. After 1 hour, the plates were washed 5 times with 100 μL/well of TBST, 20 μL/well of anti-FLAG M2-HRP conjugate (1:2000 dilution, Sigma) was added and gently stirred on a plate mixer for 1 hour at room temperature. Further, the plates were washed 5 times with 100 μL/well of TBST, and binding of N-terminal MBP fusion proteins to the antigen was detected by 20 μL/well of chromogenic substrate (0.4 mg/mL 3,3′,5,5′-Tetramethyl-benzidine, 0.01% hydrogen peroxide). After 15 minutes of reaction at room temperature, the reaction was stopped with 20 μL/well of 2N HCl, and absorbance at 450 nm was measured using a plate reader (infinite F200: TECAN). The graph was plotted with the vertical axis as the absorbance of ELISA and the horizontal axis as the concentration of N-terminal MBP fusion protein of the CTLA4-binding clones (FIG. 5), and the EC50 was calculated from the obtained binding curve (Table 6).

Molecule | ELISA S/N(SA) [2] | also measured
CSCC[C@@H]1NC(=O)[C@@H](NC(=O)[C@H](CCCCN)NC(=O)CCOCCOCCOCCOCCNC(=O)CCCC[C@@H]2SC[C@@H]3NC(=O)N[C@@H]32)CSSC[C@@H](C(=O)O)NC(=O)[C@H](Cc2ccccc2)NC(=O)[C@H](Cc2c[nH]cn2)NC(=O)[C@H](Cc2c[nH]cn2)NC(=O)[C@H](CO)NC(=O)[C@H](C(C)C)NC(=O)[C@H](C(C)C)NC(=O)[C@H](CC(C)C)NC(=O)[C@H](CC(C)C)NC(=O)[C@H](Cc2ccccc2)NC(=O)[C@@H]2CCCN2C(=O)[C@H](Cc2c[nH]cn2)NC1=O [biotinylated H12SSI-Ctla4-3-02] ({Biotin-PEG4}-KCMHPFLLVVSHHFC-OH; disulfide 2-15; C-terminus assumed) | – | kon ([1]; read-out: ka): 115000 M⁻¹ s⁻¹; kd ([1]; synthetic Biotin-PEG4-Lys peptide immobilized, BLItz): 0.022 s⁻¹
C4m#19-5th2w-NNS6-94 (GGCFHPYLPISSVHFCGR; C4m#19-5th2w-NNS6-94) | 22.4 | –
C4m3127-4th-NNS6-60 (GGCWHPFLPISSWHFCGL; C4m3127-4th-NNS6-60) [Clone C4m3127-4th-NNS6-60] | 11.9 | –
CLHPFLPIVSHHFCGR (cysteine pairing not given here; also: MBP fusion) [#10] | – | ELISA MBP-fusion Orencia (absorbance at 450 nm) ([3]; MBP-fused cyclic peptide, Orencia wells, absorbance at 450 nm): 1.1444; ELISA MBP-fusion S/N(SA) ([3]; ratio of Orencia signal to SA signal, binding = S/N not less than 2): 18.5; ELISA MBP-fusion SA (absorbance at 450 nm) [4]: 0.0617; CTLA-4 affinity improved over the original clone ([5]; EC50 by ELISA, MBP fusion cyclic peptides): about 50 fold; EC50 ([5]; N-terminal MBP fusion protein of the CTLA-4 binding clone, EC50 calculated from ELISA binding curve): 82 nM
C4m#19-5th2w-NNS6-67 (GGCQHPWLPISSWHFCPR; C4m#19-5th2w-NNS6-67) | 25.5 | –
C4m#19-5th2w-NNS6-51 (GGCRHPFLPIVSLHFCPF; C4m#19-5th2w-NNS6-51) | 15.8 | –
C4m#19-5th2w-NNS6-34 (GGCCHPFLPIYSVHFCAS; C4m#19-5th2w-NNS6-34) | 5.0 | –
C4m#19-5th4w-NN6-82 (GGCFHPFLPIRSLHFCCR; C4m#19-5th4w-NN6-82) | 28.3 | –
C4m3127-4th-NNS6-70 (GGCSHPYLPIHSRHFCLS; C4m3127-4th-NNS6-70) [Clone C4m3127-4th-NNS6-70] | 4.6 | –
C4m#19-5th2w-NNS6-55 (GGCMHPYLPIKSVHFCPL; C4m#19-5th2w-NNS6-55) | 28.3 | –
C4m#19-5th4w-NN6-34 (GGCFHPFLPIRSDHFCSR; C4m#19-5th4w-NN6-34) | 32.2 | –
C4m#19-5th4w-NN6-57 (GGCMHPYLPIVSVHFCPC; C4m#19-5th4w-NN6-57) | 27.7 | –
C4m#19-5th4w-NN6-51 (GGCWHPYLPIVSWHFCSR; C4m#19-5th4w-NN6-51) | 22.1 | –
C4m3127-4th-NNS6-2 (GGCWHPSLPIYSPHFCPL; C4m3127-4th-NNS6-2) [Clone C4m3127-4th-NNS6-2] | 12.8 | –
C4m#19-5th4w-NN6-54 (GGCLHPGLPIRSLHFCPR; C4m#19-5th4w-NN6-54) | 33.3 | –
C4m#19-5th4w-NN6-52 (GGCLHPFLPIRSVHFCGC; C4m#19-5th4w-NN6-52) | 28.6 | –
C4m#19-5th4w-NN6-87 (GGCLHPVLPIRSFHFCWR; C4m#19-5th4w-NN6-87) | 21.4 | –
C4m#19-5th4w-NN6-38 (GGCSHPFLPIFSLHFCPV; C4m#19-5th4w-NN6-38) | 16.6 | –
C4m#19-5th4w-NN6-11 (GGCRHPFLPIWSHHFCVC; C4m#19-5th4w-NN6-11) | 22.1 | –
C4m#19-5th2w-NNS6-37 (GGCIHPFLPIWSIHFCSR; C4m#19-5th2w-NNS6-37) | 9.4 | –
C4m#19-5th2w-NNS6-74 (GGCMHPFLPIRSWHFCSR; C4m#19-5th2w-NNS6-74) | 7.0 | –
C4m#19-5th2w-NNS6-3 (GGCAHPFLPIFSPHFCPF; C4m#19-5th2w-NNS6-3) | 18.4 | –
C4m#19-5th4w-NN6-92-1 (GGCVHPFLPIRSVHFCAL; C4m#19-5th4w-NN6-92-1) | 30.0 | –
C4m#19-5th2w-NNS6-75 (GGCWHPWLPIKSPHFCAL; C4m#19-5th2w-NNS6-75) | 15.3 | –
